Data on three proteins can be found in paper PMC7409301, “Natural Killer Cell Activation Receptor NKp30 Oligomerization Depends on Its N-Glycosylation” (Cancers, 2020).

The nature of series [1]: sedimentation velocity AUC. Particulars: glycan lost; control: NKp30_Stalk from HEK293S GnTI− (uniform glycans).
Series [2] is described as follows: SEC-MALS. The conditions noted are these: glycan lost; control: glycosylated NKp30_Stalk (HEK293T or HEK293S GnTI−). In general terms: SEC sorts molecules by how far they enter the pores of the column.
The nature of series [3]: solubility during deglycosylation in HEPES buffer. The conditions noted are these: glycan lost; control: glycosylated B7-H6 (HEK293S GnTI−).
Series [4] concerns the molecule itself. Nature of the series: AUC; sedimentation velocity of wild-type B7-H6 at 0.5 mg/mL, c(s) distribution.

Where “and” joins values, the source holds several entries; their conditions need not be identical. Identical values can stand only once.

B1: NKp30: Endo F1 (protein)
parent chain: MAWMLLLILIMVHPGSCALWVSQPPEIRTLEGSSAFLPCSFNASQGRLAIGSVTWFRDEVVPGKEVRNGTPEFRGRLAPLASSRFLHDHQAELHIRDVRGHDASIYVCRVEVLGLGVGTGNGTRLVVEKEHPQLGAGTVLLLRAGFYAVSFLSVAVGSTVYYQGKCLTWKGPRRQLPAVVPAPLPPPCGSSAHLLPPVPGG
B1: the oligomerisation entry in series [1] and in series [2] was “abolishes” throughout.

B2: B7-H6: Endo F1 (protein)
parent chain: MTWRAAASTCAALLILLWALTTEGDLKVEMMAGGTQITPLNDNVTIFCNIFYSQPLNITSMGITWFWKSLTFDKEVKVFEFFGDHQEAFRPGAIVSPWRLKSGDASLRLPGIQLEEAGEYRCEVVVTPLKAQGTVQLEVVASPASRLLLDQVGMKENEDKYMCESSGFYPEAINITWEKQTQKFPHPIEISEDVITGPTIKNMDGTFNVTSCLKLNSSQEDPGTVYQCVVRHASLHTPLRSNFTLTAARHSLSETEKTDNFSIHWWPISFIGVGLVLLIVLIPWKKICNKSSSAYTPLKCILKHWNSFDTQTLKKEHLIFFCTRAWPSYQLQDGEAWPPEGSVNINTIQQLDVFCRQEGKWSEVPYVQAFFALRDNPDLCQCCRIDPALLTVTSGKSIDDNSTKSEKQTPREHSDAVPDAPILPVSPIWEPPPATTSTTPVLSSQPPTLLLPLQ
Turning to B2, the stability_or_folding result in series [3] is “decreases”.

B3: wild-type B7-H6 extracellular portion (with the odd cysteine Cys212) (domain or fragment, UniProt Q68D85 25-245, looked up)
chain: DLKVEMMAGGTQITPLNDNVTIFCNIFYSQPLNITSMGITWFWKSLTFDKEVKVFEFFGDHQEAFRPGAIVSPWRLKSGDASLRLPGIQLEEAGEYRCEVVVTPLKAQGTVQLEVVASPASRLLLDQVGMKENEDKYMCESSGFYPEAINITWEKQTQKFPHPIEISEDVITGPTIKNMDGTFNVTSCLKLNSSQEDPGTVYQCVVRHASLHTPLRSNFTL
modifications: N-glycosylated; disulfide bridges not linked correctly by mass spectrometry
notes: entire extracellular portion Asp25-Leu245 with two Ig-like domains; source: HEK293 cells, transient transfection, secreted, purified (IMAC, SEC); not shown: three amino acids left after cleavage of the secretion signal, N-terminal, kept
For the protein B3, the stoichiometry N (usually the number of molecules, sites or subunits per partner or assembly) in series [4] is 2 and 4.
